Test system: T1, Biotin-GDEVDGC biotinylated peptide substrate for caspase-3, coupled to aminated CLIO
T1 sequence: GDEVDGC

Caspase 3
T2 relaxation time (dispersal of the aggregate after cleavage of the peptide): When the inhibitor is not added or capase is added, the aggregate is dispersed resulting in an increase of T2

Source: patent publication US20090029392
